Target: recombinant α4β1 integrin (R&D Systems) (UniProt P13612)
Experiment: ELISA, recombinant α4β1 immobilised; reference is the anti-VLA-4 scFv

For Fab of Natalizumab, the fold ELISA signal against scFv was 10 times.
